# Test: soluble fraction after stress (log2 fold change); higher = more stays soluble; pooled small domains, quantitative proteomics
# Settings: stress: pH 4
# Outline: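 Custom libraries of small protein domains were pooled and measured with high-throughput quantitative proteomics after pH 4 stress. The read-out is the fold change in the amount of each domain that stays soluble after the acid stress, taken as a measure of aggregation propensity. Fold changes are on a log2 scale, and higher values mean more of the domain stayed soluble.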
row,Sequence,soluble fraction (log2)
1,HMKKDNLKKIKSIDEDIENELFKLGIYHFEQISIWSSKNAEWIENFLNLPNYVRANQWVEQAKILK,-0.885
2,HMKKDRKKMLKEGIVLFEKILRGMELSPTSEPLKKVLTSFNIQNKEDLYVKLGAGVISSEEVIKELKKK,≥ 0.43
3,HMKKILIVTNRSAGMVVYTIPEEGIRREFTPGETKKIPFEELEKLAYLSGGRTLMENFLKIVDTETTEELG,-1.44
4,HMKKIYEEVSEAILTMIKNGTLKPGDKLLPVHQLAEQFQVGRSAVREALSALRAMGLIEMKQGEGTYVKNF,-0.6
5,HMKKKVDSENLLLDILKQMQPQASTNVLRKMLTNQRISVDDQIIHRAKHVVQEGQTVEIHPKP,0.139
6,HMKKLPEKFDYNEISGLRIEAQQKLNEFQPLNIGQASRISGVTPADISVLLVYLEQLKYSNPDLFFKLNPD,-0.743
7,HMKKLTAEEIQEAKDILEKIQEIPNFKKIFGDDTIKALENSTKTGVLLPDNIISKIHTLMIRFGIK,-0.248
8,HMKKMEEEFALFNAWVDRRLGIPLAAYKENQMQRRILTIMENSGAKTLREYQQLIEGDEGVRAAFLAHIT,-1.76
9,HMKKPIYLTIANDIEKKIFNNDYPKNERLPSERNLAEEYGVTRMTIRNSIEYLVSKGLLEKRLGSGNYVKR,≥ 0.43
10,HMKKPLEYIDVDKREDFPPVPNGMRYIHFYGGTKNYRAYIAPEDISRADFMEQYPEYVPEHN,0.0177
11,HMKKSTLLLFFLKELLEGKKISLKSFALENDINIRTAQRYIEDIEEAFPDNLLKENDFYSFV,-1.05
12,HMKKTETVRFTTNVTHGTKIKETDVEVVKISNSALPDKVVKNKTEVIGKYATADLFKGDFATENKVTD,0.192
13,HMKKTIIVHVVGEVNTPGIVELNEGARIIDAINGAGGKTEEADMSKINLAYVIEDGSQIYVPSIYE,-1.08
14,HMKKTITISNYINVRDFATMSELPVNSILSVLMKNGIFVSLNEKIDFDTAWLVGSELGLEVKQKQG,-0.818
15,HMKKYEFIEDLPGVGPATAQKLRDLGYHTVESLAMATARELEPIGVGEKKAFSMIEAARSAIGFS,0.00186
16,HMKKYISEEQAKQAALETAGGGSVVKIKFTTDDGIKVYEIDIINGNYEYEITVHAETGKILDVDKERIH,-0.404
17,HMKLELSNDFYNKIRLARKENGLTQEDLAEKLNMKVGVIQKIENGVRQTDSNLMKISKFLGVEIYVE,-0.303
18,HMKLPNGYGGIAKLSGKRRNPWRVRVTKGWSVDEQTGKAKQLFSTLGYYPTRKDALAALSAYNQNP,0.22
19,HMKLRLGVNIDPVATVRNARGSAYPDPVRAAIIAQEAGADGITAHLREDRRHIVDQDITSIIKAIDIPLNF,-0.0902
20,HMKLRSIQEQVQYLEKVDNQKAMQIILNMNDKASAVQILRNMKKEKAAAILAQMDPLQAAQILEDLA,-0.132
21,HMKLSDDIIVDTIKEIIEENKNMIEQRKMGAMGPLMGKAMAKFKGKADGQTVSNVIKDEILNIIN,0.0647
22,HMKLSIEDLAAELIRKIEAGDIGNEQGKMPSERELLAIYPVSRYTLRQALNKLSKMGWIYQMQGRGSYIRF,-0.83
23,HMKLSNELLNAIMLIKKGIRNPTSLAQRLNTDTQYAKNLLEHLKMTGLINEHSRLTSRGLDIFHQK,-0.295

row,Sequence,soluble fraction (log2)
1,HMKLTEEEFNAKRKAYLDRLETLNDEAVIKATFMEAASGLGLQKGSAEFGDLRKYFVDRIVDIK,-0.903
2,HMKLTEGETIFLNESDTADWKKIPGIGSVYASRIVKYRNLLGGFVSVNQLREVYGIDDELFAKIYPYI,-0.0375
3,HMKLTESQLHKFTNDAVLAHIRNLIEFKGAFTEDDIEPIIRDRAAVYGIDLEDEDYKKVKTDVEYHFK,-1.53
4,HMKLVELVGSPKQIAWAEDIRKNMISYLSALVRKYEAENRPARAEKRAKDMEILSNIKEASWFIENRS,0.155
5,HMKMAKTIKEIAEEIGVSKQAVFKKIKQVPLSTEIEKFISTVDGKKLVSVDGENLIKQAFQR,0.255
6,HMKMLKAPIPGTIIEVKVNPGQTVNDGDVAVVLEAMKMESDIHFNSSGKVKKIHVNKGDSVQEGDDLIELE,-0.605
7,HMKMNRELNQRQIKMLDYLSVNPKTTRKQYTKMMGISFMTSYRDIQELIDKAYIISKGQGRGTYYILAN,-0.0196
8,HMKMQIGEIIRKYRKSNHMTQEEMAERLGVSAPAVNKWENGNSMPDIMLLAPITRLLGISLDELLSFE,-0.581
9,HMKMSVEEVNLSPRTTNALINNDIKTMKDLVALTDTELRDLKGFGSKAYEEVKEKLSELGLSTQ,-0.546
10,HMKMSVKNEIISLLEKNRDTSISGQVIADSLNVTRAAVWKAIKVLKEEGYNIDGTPNKGYILLGNN,0.0991
11,HMKMTFGENLHKLRKIYRLSQEDVASAINLKRSDIAAVEKGDRVLNDEELDKLADFIGIDIVDLL,-0.853
12,HMKMVSTPTGTRISLTQVKEFISNASFDDMKEILLEVLAWFKAHNLGNPFNYNRAFEFIVAH,-0.302
13,HMKNELNSKLIISIKEALPPQIKVATYLMDLLSLGREAVYRRIRGDVSFDLEELSIISKALNISIDDVL,-2.53
14,HMKNESLMLPRDIDYSRVHGLSNEAIQKLQDALPQSLGQASRIEGITPATLSLLLLYLKKNNKRI,0.0199
15,HMKNHSTFKSVLSNIEFPINERISGHAIQNPILGLIKADHPNFSSDQYIAISELNFYREKYISNYLLTEI,-1.6
16,HMKNKIYGTIVSSTSGEETVYKVFQVDSSKDITYLFRPDMIRLAHENNQALEFNEETGRGKRIEMSDLPK,-0.0332
17,HMKNLHLVPNVVGMSAKEAKNTLKSFNIKYKPIYGSSNKYDENYIFNQNPRKGKTIKEQEVVTIYISRGAD,≥ 0.43
18,HMKNNNIIFSEFLKEVENGRVVEVRIQGNNIQGIMSNGKEFTTYSPNYPNLIEKLTETGVSISAAPL,-0.516
19,HMKNPLIIGMTKDKIIELIGMPDNIKFLDSSLSKSEVWNYDKFGKKLYIKDEKLYQIENIEE,-0.491
20,HMKNSAAKETILAFLKKNGGELFTQMQIIEKFQKMIPAPVLRITLEELLNKGQVEITSKGKYYLSVKGS,-0.903
21,HMKNSKIVIQKRHNHILELLKQNRTMDVTVLAERLGVTGATIRRDLKKLEQEGTIVRSFGKVSFVG,≥ 0.43
22,HMKNTVGEYRKLKSTTILYSNSDLTGTKYTYLPNTTVKILKNISSTVDYVYIKATNRYAYINIYAYT,0.326
23,HMKNVENIILEQLKKNIYDDLNNASFEEIILIDAEKSIYKGTIKANYIEYNFKINLSTGEILKWKLK,-0.763

row,Sequence,soluble fraction (log2)
1,HMKNVSVKMILSPESLGEIQVDLVFSKGKDLEIMLRPETAEVAKLIQSNSASLREQLSLEHKGPLSLNVS,-0.405
2,HMKNYALHEPMMDRIAKVNALYDAGHTIKYMTARGAVSMVDYYDLTKSQLDSWGAKYHELSVGK,0.179
3,HMKNYYEVLGVPRDAAAPDIKRAFRKLAKQFHPDHNPGDAKAEERFKLVSQAYDVLGDEEKRKLYDQFGE,0.254
4,HMKNYYSILGVTPDSSEAEIKSAYRRLARKFHPDVNPDGASRFKDISEAYETLSDAKKRFQYDTINGF,0.234
5,HMKPATSITFIPSERPDLVEQLSKITFDKKDSLYENYINLNWLTFEAISVYMREGDIIGFST,-0.305
6,HMKPDAAKREQLIDIALRLFSQQGIARTSLNAIAREAGVTPAMLHYYFNSREQLLDVMIEERFL,-1.45
7,HMKPDIETQLKKYRYKVSVSKKIKPYMVFSDKTLSELLTKSPTNLKELEDINGFGPVKVQEYGAAILEILK,0.148
8,HMKPDSEFTSQDLWQNDLAGTGSAAYRRDKMGALLGIGYGNAKRFLERLNSYGVTRSEFDEALAQLGE,0.134
9,HMKPEDIALLEEIRDLLKEKKSVIVNLEYVNKDVARRIVDFISGGVFALNGHIQKVSNSIFLVAPMN,-0.26
10,HMKPMNNNDILRRLRYTFDLSDDKMMETFALGGYEANRSEISDWLKKDDHPEQKSLYDKSLSHFLNGFIV,-0.085
11,HMKPPVQVIGKAVVTASSLNVRTGPGTGHGIITSLPRNTEVELLEQQGEWYKIRRGSTVGYVHGGYLKIN,-0.095
12,HMKPRISMITLGVKDLNKSIEFYGGGLGFPRKKTEPEIAIFKLNGSWLSLYNRGLLAEDANVS,0.347
13,HMKPSKYTLAIDSIPVHVTRKQMKSIRLRVTPLGEVRVSAPYGVKDSEIVEMVRSRKLWIESQQRA,-0.0235
14,HMKPSTETLYATARINVRAAADTSAEKLGSIEMGEAVVRTGTDGDWSIIEYNGSTGYVKSEYLTANAGDAT,-0.188
15,HMKPSVEIKVNGGTGAGVVKKGGSITVTANEPAEGKVFTGWQDESGKIVSTQKEYTFTVAEGTTLTAVYED,-0.417
16,HMKPTGWVRGDMGVVDKGQLSITQGTVNVRSGPGLSYEILDQVRRGDRFPVIKSQSGWHNISM,0.361
17,HMKPTSLLGIERYLGSGLIRGVGPSTAKQIVEHFGMETMEVLTEHPERLQEVHGMGRKRWRQIAESFQEQQ,-0.0617
18,HMKPVTVINFVGMTEEKAMTEAEKLGLVVGASSSEYSDEPAGTVIRQSISVSTEAKTGDNIYFTVSKGPE,-0.416
19,HMKQETLNEIGTKIRKLRESKNLSIQEFADKLEMEYNNVIRIEKGRTNFTIGTLVKIANSLEVNLKDI,-1.01
20,HMKQFVVQYYGIDGEVINSVYKNGMSDLTSYEPEKIDGKNFKGWSLSEDSKKVIDENYRINSDVNLYAVYT,0.15
21,HMKQHPTIDLQIGQKLHYKEDVFEVTRFAKDKNGQDMVILKDPSIGSGIEIPWYRSKLEEIIESGQYKIT,-0.113
22,HMKQIEEIIARYTNENTPLMMILSDVQREYGYIPLDVQELISEKTGIPVAEIYGVVTFYSFFSL,-0.337
23,HMKQISQNIHRLRKEKGMSQEQLAQALHVTRQTVSAWERGIAQPSLDVLGQIAQLLGVEPERLLYGE,-0.16

# Reference: the domain aggregation screens of Martell et al. (2025)
